Molecular target: hACE2-K31N/K353H (human) (UniProt Q9BYF1)
Assay: flow cytometry on cells

## recombinant SARS-CoV-2 spike RBD-Fc protein (from UniProt P0DTC2 319-524) (Fc fusion)
  binding efficiency (percentage of GFP+ cells that bound RBD-Fc): 7.86%
